Reference: publication PMC5124861, “Transition steps in peroxide reduction and a molecular switch for peroxide robustness of prokaryotic peroxiredoxins” (Scientific Reports, 2016)

Target: the molecule itself
Experiment: crystal structure; oxidized EcAhpC_(1-186)-YFSKHN; hanging-drop vapour diffusion, 1.6 M ammonium sulfate, 100 mM MES pH 6.5, 5% dioxane, 4.5 mg/ml protein, 291 K; 2.7 Å; decamer in the asymmetric unit

B1: chimeric EcAhpC_(1-186)-YFSKHN (enzyme, E. coli | human)
chain: MSLINTKIKPFKNQAFKNGEFIEITEKDTEGRWSVFFFYPADFTFVCPTELGDVADHYEELQKLGVDVYAVSTDTHFTHKAWHSSSETIAKIKYAMIGDPTGALTRNFDNMREDEGLADRATFVVDPQGIIQAIEVTAEGIGRDASDLLRKIKAAQYVASHPGEVCPAKWKEGEATLAPSLDLVGKYFSKHN
notes: C-terminal YFSKHN segment (helix with the YF motif) of human Prx2; Decamer (alpha2)5 in the crystal; In the oxidized form an intermolecular disulphide joins C47 and C166' of the two subunits of each dimer; the reduced form came from soaking oxidized crystals in 1 mM TCEP; The forward primer (NcoI, ATG GCA ATG TCC) may add residues before M1; also called chimeric Prx; Ox; copies: 10
- stoichiometry N: 10
